Experiment [1] concerns the target Recombinant human his-tagged IGF R extracellular domain protein (human) (UniProt P08069). The experiment can be described thus: SPR, Ab captured via anti-huIgG Fc, pH 7.4.
For experiment [2] the target is unchanged. The experiment can be described thus: SPR, Ab captured via anti-huIgG Fc, dissociation at pH 6. A general note: SPR reads the build-up and loss of mass on a sensor chip optically.

B1: VRDN-02013 (antibody, V domains shown)
VH: QVQLQESGPGLVKPSETLSLTCTVSGYSITGGYLWNWIRQPPGKGLEWIGYHSYDGTNNYKPSLKDRVTISRDTSKNQFSLKLSSVTAADTAVYYCARYGRVFFDYWGQGTLVTVSS
VL: DIVMTQSPLSLPVTPGEPASISCRSSQSIVHSNGNTYLQWYLQKPGQSPQLLIYKVSNRLYGVPDRFSGSGSGTDFTLKISRVEAEDVGVYYCFQGSHVPWTFGQGTKVEIK
On to B1, for which, in experiment [1], the Kd (usually the concentration at which binding is half-saturated) is 0.674 nM; the koff (usually a measure of how fast the partners let go of each other) came out at 5.45e-05 s⁻¹; the association rate constant (kon) (as a rule, a measure of how fast the partners come together) was found to be 80800 M⁻¹ s⁻¹. Also, in experiment [2], the equilibrium dissociation constant (Kd) was 1.17 nM, the koff is 0.000109 s⁻¹ and the kon worked out at 93200 M⁻¹ s⁻¹.

B2: VRDN-02015 (antibody, V domains shown)
VH: QVQLQESGPGLVKPSETLSLTCTVSGYSITGGYLWNWIRQPPGKGLEWIGYISHDGTNNYKPSLKDRVTISRDTSKNQFSLKLSSVTAADTAVYYCARYGRVFFDYWGQGTLVTVSS
VL: DIVMTQSPLSLPVTPGEPASISCRSSQSIVHSNGNTYLQWYLQKPGQSPQLLIYKVSNRLYGVPDRFSGSGSGTDFTLKISRVEAEDVGVYYCFQGSHVPWTFGQGTKVEIK
For B2, in experiment [1], the dissociation constant Kd was 0.51 nM, the off-rate (koff) was found to be 4.57e-05 s⁻¹ and the association rate constant (kon) was 89500 M⁻¹ s⁻¹. Also, in experiment [2], the dissociation constant Kd came to 0.961 nM, the off-rate constant (koff) came out at 8.79e-05 s⁻¹ and the kon was 91400 M⁻¹ s⁻¹.

B3: VRDN-02014 (antibody, V domains shown)
VH: QVQLQESGPGLVKPSETLSLTCTVSGYSITGGYLWNWIRQPPGKGLEWIGYIHYDGTNNYKPSLKDRVTISRDTSKNQFSLKLSSVTAADTAVYYCARYGRVFFDYWGQGTLVTVSS
VL: DIVMTQSPLSLPVTPGEPASISCRSSQSIVHSNGNTYLQWYLQKPGQSPQLLIYKVSNRLYGVPDRFSGSGSGTDFTLKISRVEAEDVGVYYCFQGSHVPWTFGQGTKVEIK
As for B3, in experiment [1], the Kd was found to be 0.697 nM, the koff turned out to be 6.19e-05 s⁻¹ and the association rate constant (kon) is 88700 M⁻¹ s⁻¹. Moreover, in experiment [2], the dissociation constant (Kd) stood at 1.11 nM, the koff is 0.000153 s⁻¹ and the kon came to 138000 M⁻¹ s⁻¹.

The values above are taken from patent publication US20240360227A1.
